In US20240076370A1 (Memorial Sloan Kettering, published 2024):

Target: T1, human G-protein coupled receptor family C group 5 member D (GPRC5D) (human, UniProt Q9NZD1 1-345)
T1 construct: Overexpressed on 3T3 cells in the FACS assays; also called human GPRC5D; 3T3-GPRC5D
Experiment: FACS, scFv phage clones on 3T3 cells overexpressing GPRC5D

T1 sequence (Q9NZD1 whole entry): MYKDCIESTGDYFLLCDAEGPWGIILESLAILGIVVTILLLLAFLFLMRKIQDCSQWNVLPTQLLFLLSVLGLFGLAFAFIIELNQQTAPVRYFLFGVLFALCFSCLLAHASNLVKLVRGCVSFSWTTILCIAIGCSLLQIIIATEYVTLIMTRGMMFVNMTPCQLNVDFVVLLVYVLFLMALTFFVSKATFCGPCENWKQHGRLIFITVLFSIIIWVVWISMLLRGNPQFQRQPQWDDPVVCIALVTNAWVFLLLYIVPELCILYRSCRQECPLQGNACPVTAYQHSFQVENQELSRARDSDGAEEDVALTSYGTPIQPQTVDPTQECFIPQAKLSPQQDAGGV

Row | binding result | Binder
1 | binds | ET150-156 scFv (scFv, also called ET150-6 scFv) scFv: QSALTQPASVSGSPGQSITISCTGTSRDVGGYNYVSWYQQYPGKAPKLMIYEVSKRPSGVSNRFSGSKSGNTASLTISGLQAEDEADYYCSSYTSSSTLDFGTGTKVTVLGSRGGGGSGGGGSGGGGSLEMAQVQLVQSGAEVKQPGASVKVSCQASGYTFTTYYMHWVRQAPGQGLEWMGIINPNGGGTFYAQKFQDRVTMTRDTSTGTVYMELSSLRSDDTAVYYCARGHKVYKSHPTGGYDRWGQGTLVTVSS
2 | binds | ET150-159 scFv (scFv, also called ET150-9 scFv) scFv: QSVLTQPPSASGTPGQRVTISCSGSSSNIGSNYVYWYQQLPGTAPKLLIYRNNQRPSGVPDRFSGSKSGTSASLAISGLRSEDEADYYCAAWDDSLSGWVFGGGTKLTVLGSRGGGGSGGGGSGGGGSLEMAQVQLVQSGAEVKKPGSSVKVSCKASGGTFSSYAISWVRQAPGQGLEWMGWMNPNSGNTGYAQKFQGRVTMTRNTSISTAYMELSSLRSEDTAVYYCARYQSYKGSQSDSWGQGTLVTVSS
3 | binds | ET150-157 scFv (scFv, also called ET150-7 scFv) scFv: SYELTQPPSASGTPGQRVTISCSGSSSNIGSNYVSWYQQLPGTAPKLLIYRNNQRPSGVPDRFSGSKSGTSASLAISGLRSEDEADYYCAAWDDSLSGVVFGGGTKLTVLGSRGGGGSGGGGSGGGGSLEMAEVQLVQSGAEVKKPGSSVKVSCKASGGTFSSYAISWVRQAPGQGLEWMGGIIPIFGTAKYAQKFQGRVTITADESTSTAYMELSSLRSEDTAVYYCARSHVAWSLLDYWGQGTLVTVSS

Target: T1, human G-protein coupled receptor family …
Experiment: flow cytometry (MFI, FL2) on 3T3-GPRC5D and parental 3T3 cells at 10 and 1 µg/mL, PE-labelled anti-mouse IgG secondary antibody
Protocol: Each antibody (ET150-1, ET150-2, ET150-5, ET150-8, ET150-18) was incubated with 3T3 or 3T3-GPRC5D cells at 10 or 1 μg/mL, then with anti-M13 mouse antibody. Finally PE-labeled anti-mouse IgG 2nd antibody was added to the reaction. The binding was measured by FACS and expressed as mean fluorescence intensity (MFI) (FIG. 13). Cells incubated with 2nd antibody alone, ET901 mIgG1 isotype control and cells only were used as negative controls.

Row | binding result | Binder
4 | binds | ET150-5 mIgG1 (antibody, V domains shown, also called ET150-155) VH: EVQLVESGGGLVKPGGSLRLSCAASGFTFSDYYMSWIRQAPGKGLEWVSYISSSGSTIYYADSVKGRFTISRDNAKNSLYLQMNSLRAEDTAVYYCARGYGKAYDQWGQGTLVTVSS VL: QSVLTQPPSASGTPGQRVTISCSGSRSNVGGNYVFWYQQVPGATPKLLIYRSNQRPSGVPDRFAGSKSGSSASLAISGLRSEDEADYYCATWDDSLSGFVFGTGTKVTVLG
5 | binds | ET150-2 mIgG1 (antibody, V domains shown, also called ET150-152) VH: QMQLVQSGAEVKKPGASVKVSCKASGYTFNRYAITWVRQAPGQGLEWMGWISAYNGNSHYAQKLQGRVTMTTDTSTGTAYMELRRLRSDDTAVYYCARMAYDSWGQGTLVTVSS VL: QSVLTQPASVSGSPGQSLTISCTGTSNDVGAYKYVSWYQQYPGKAPKLILYDVFKRPSGVSNRFSGSKSDNTASLTISGLQAEDEADYYCFSLTSSNTYVFGTGTKVTVLG
6 | binds | ET150-18 mIgG1 (antibody, V domains shown, also called ET150-168) VH: EVQLVESGGGLIQPGGSLRLSCAASGFTFSNYAMNWVRQAPGKGLEWVSTINGRGSSTIYADSVKGRFTISRDNSKNTLYLQMNSLRAEDTATYYCARYISRGLGDSWGQGTLVTV VL: QSVVTQPPSMSAAPGQQVTISCSGGNSNIERNYVSWYLQLPGTAPKLVIFDNDRRPSGIPDRFSGSKSGTSATLGITGLQTGDEADYYCGTWDSSLRGWVFGGGTKLTVLG
7 | binds | ET150-8 mIgG1 (antibody, V domains shown, also called ET150-158) VH: QVQLVESGGGLVHPGGSLRLSCAASGFTFRSHSMNWVRQAPGKGLEWVSSISSDSTYTYYADSVKGRFTISRDNAKNSLYLQMNSLRAEDTAVYYCARSGGQWKYYDYWGQGTLVTVSS VL: SSELTQDPAVSVALGQTVRITCQGDSLRSYYASWYQQKPGQAPVLVIYGKNNRPSGIPDRFSGSSSGNTASLTITGAQAEDEADYYCNSRDSSGNPPVVFGGGTKLTVLG

Target: T1, human G-protein coupled receptor family …
Experiment: flow cytometry: phage clone on 3T3-GPRC5D cells (printed 3T3-ET150), anti-M13 mouse antibody, then APC-labelled anti-mouse IgG; control without phage (A04 anti-M13+ APC mIgG) median 10.9
Protocol: FACS Screening. […] Phage clones were incubated with 3T3-GPRC5D cell line, then with anti-M13 mouse antibody. Finally APC-labeled anti-mouse IgG 2nd antibody was added to the reaction after washing again. The binding was measured by FACS and expressed as mean fluorescence intensity (MFI). Cells incubated with M13 K07 helper phage and cells only were used as negative controls.

Row | Median, RED2-HLin | Binder
8 | 3180 | ET150-168 scFv (scFv, also called ET150-18 scFv) scFv: QSVVTQPPSMSAAPGQQVTISCSGGNSNIERNYVSWYLQLPGTAPKLVIFDNDRRPSGIPDRFSGSKSGTSATLGITGLQTGDEADYYCGTWDSSLRGWVFGGGTKLTVLGSRGGGGSGGGGSGGGGSLEMAEVQLVESGGGLIQPGGSLRLSCAASGFTFSNYAMNWVRQAPGKGLEWVSTINGRGSSTIYADSVKGRFTISRDNSKNTLYLQMNSLRAEDTATYYCARYISRGLGDSWGQGTLVTV
9 | 2400 | ET150-152 scFv (scFv, also called ET150-2 scFv) scFv: QSVLTQPASVSGSPGQSLTISCTGTSNDVGAYKYVSWYQQYPGKAPKLILYDVFKRPSGVSNRFSGSKSDNTASLTISGLQAEDEADYYCFSLTSSNTYVFGTGTKVTVLGSRGGGGSGGGGSGGGGSLEMAQMQLVQSGAEVKKPGASVKVSCKASGYTFNRYAITWVRQAPGQGLEWMGWISAYNGNSHYAQKLQGRVTMTTDTSTGTAYMELRRLRSDDTAVYYCARMAYDSWGQGTLVTVSS
10 | 3110 | ET150-158 scFv (scFv, also called ET150-8 scFv) scFv: SSELTQDPAVSVALGQTVRITCQGDSLRSYYASWYQQKPGQAPVLVIYGKNNRPSGIPDRFSGSSSGNTASLTITGAQAEDEADYYCNSRDSSGNPPVVFGGGTKLTVLGSRGGGGSGGGGSGGGGSLEMAQVQLVESGGGLVHPGGSLRLSCAASGFTFRSHSMNWVRQAPGKGLEWVSSISSDSTYTYYADSVKGRFTISRDNAKNSLYLQMNSLRAEDTAVYYCARSGGQWKYYDYWGQGTLVTVSS
11 | 3230 | ET150-151 scFv (scFv, also called ET150-1 scFv) scFv: QSVVTQPASVSGSPGQSITISCTGTSSDVGGYNYVSWYQQHPGKAPKLMIYDVSKRPSGVSNRFSGSKSGNTASLTISGLQAEDEADYYCSSYTSSSTLVFGGGTKLTVLGSRGGGGSGGGGSGGGGSLEMAEVQLVESGGAFVQPGGSLRLSCAASGFTFSSYAMTWVRQAPGKGLEWVSTISGRGRSTFYADSVKGRFTISRDNSKNTLYLQMNSLRAEDTAVYYCARYYHAGAFDLWGQGTLVTVSS
12 | 3220 | ET150-155 scFv (scFv, also called ET150-5 scFv) scFv: QSVLTQPPSASGTPGQRVTISCSGSRSNVGGNYVFWYQQVPGATPKLLIYRSNQRPSGVPDRFAGSKSGSSASLAISGLRSEDEADYYCATWDDSLSGFVFGTGTKVTVLGSRGGGGSGGGGSGGGGSLEMAEVQLVESGGGLVKPGGSLRLSCAASGFTFSDYYMSWIRQAPGKGLEWVSYISSSGSTIYYADSVKGRFTISRDNAKNSLYLQMNSLRAEDTAVYYCARGYGKAYDQWGQGTLVTVSS
